Sequences and labels used below:
B1: human anti-FHbp Fab 7B (Fab, V domains shown)
VH: QVQLVQSGPEVKKPGASVKISCKTSGYTFTTNALYWVRQAPGQRPEWVGWLNTGNGNSKTSQNFQGRVTITRDTSASSTYMELSSLTFEDTAVYFCARRPSGDYNTYYFDFWGQGTLVTVSS
VL: EIVMTQSPGTLSLSPGGRGTLSCRASESVSSSYISWYQHKSGQAPRLLIYGASSRATGIPDRFSGSGSGTDFTLTISRLEPEDFAVYYRQYFSGSKGLTFGPGTKVDIK
B2: human anti-FHbp Fab 3C (Fab, V domains shown)
VH: QVQLQESGPGLVKPSETLSLTCTVSGYSITRGYYWGWIRQPPGKGLEWIGGIYHSGTTYQNPSLRSRVTFSVDTSKNQFSLKLRSVTAADTAVYYCARDNYSSNLDYWGQGTMVTVSS
VL: EIVLTQSPGTLSLSPGERATLSCRASQSVSSSYLAWYQQKAGQAPRLLIYGASSRATGIPERFSGSGSGTDFTLTISRLEPEDFAIYYCQQYGSSRFIFGPGTKVDIK
B3: human anti-FHbp Fab 9B (Fab, V domains shown)
VH: EVQLVQSGAELKKPGESLKISCKASGYTFTNYWVVWVRQMPGEGLEWMGSIHPRDSDARYSLSFEGRVTFSVDKSTTTAYLQWSSLKVSDSAIYYCARLSQVSGWSPWVGPWGQGTLVTVSS
VL: DIVMTQSPSSLSASVGDRVTITCRASQSISVSLNWYQQKPGKAPKVLIYAASRLQSGIPSRFSGSGSGSHFTLTISSLQPEDFATYYCQETYSDLMYTFGQGTKVEIK
B4: human anti-FHbp Fab 6B (Fab, V domains shown)
VH: EVQLVESGGGLVQPGGSLRLSCAASGFTFSSYAMSWVRQAPGKGLEWVSAISGSGGSSHYTDSVKGRFTISRDNSKNTLWLQMNSLRAEDTAIYYCAKTSGSYYYHYEIDVWGQGTTVTVSS
VL: EIVLTQSPGTLSLSPGERATLSCRASQSVSSSYLAWYQQKPGQAPRLLIYGTSNRATGIPDRFSGSGSGTDFTLTVSRLEPEDFAVYYCQQYGSSPCSFGQGTKLELK
B5: human anti-FHbp Fab 10C (Fab, V domains shown)
VH: QVQLVESGGGVVQPGRSLRLSCPASGFTFSRYALHWVRQAPGKGLEWVAVISFDGSFKYYADSVKGRFSISRDNFKNTLYLQMNSLRAEDTAVYYCAKDDTLHASGWGGFDYWGQGALVTVSS
VL: EIVLTQSPATLSLSPGERATLSCRASQSVTSYLTWYQHKPGQAPRLLIYHTSYRATGIPARFSGSGSGTDFTLSITSLEPEDFAVYYCQQRSNWPFTFGPGTKVDIK
B6: human anti-FHbp Fab 8A (Fab, V domains shown)
VH: QVQLVESGGGLVQPGGSLRLSCVTSGFTFRSYAMTWVRQAPGKGLEWVSSISHSGGSTKYADSVKGRLTISRDDSMDTLYLQMNSLRAEDTAIYYCAKDQISYPAASPLDYWGRGTLVTVSS
VL: EIVLTQSPGTLSLSPGERATLSCRASQSFSSFSLAWYQQKPGQAPRLLIYAPSNRATGIADRFSGSGSGTDFTLTISRLEPEDFAVYYCQQYGSSPITFGQGTRLEIK
B7: control chimeric human-mouse anti-FHbp Fab 502 (Fab, V domains shown)
VH: EVQLQESGPGLAKPSQTLSLTCSVTGYSITSDFWNWIRKFPGNKLEYMGYISYSGSTDYNPSLKSRISITRDTSKNQYYLQLNSVTAEDTATYYCARYFGSSYAMDHWGQGTSVTVSS
VL: DIQMTQSPASLSASVGETVTITCRASGNIHNYLAWYQQKQGKSPQLLVYTAKTLAEGVPSRFSGSGSGTQFSLKINSLQPEDFGSYYCQHFWSTPWTFGGGTKLEIK
B8: human anti-FHbp Fab 4B (Fab, V domains shown)
VH: EVQLVESGGGLAQPGGSLRLSCVASGSTFGSYAIYWVRQAPGKGLEWVSGISGSGTKIDYADSVKGRFTISRDISKNTLYLQMNSLRAEDTAVYYCAKLGFFDYWGQGTQVTVSS
VL: EIVLTQSPDTLSLSPGERATLSCRASQSVSTYLFWYQKKPGQAPRLLIFDASNRATGIPVRFSGSGSGTDFTLTISSLEPEDFAVYYCQQRSNWPQTFGGGTKVEIK
B9: human anti-FHbp Fab 2A (Fab, V domains shown)
VH: QVQLQQSGSGLVKPSQTLSLTCTVSGGSINIGDRYWSWLRQSPGKGLEWIGYIDYSGDTYYNSSLKSRAAISIDTSNKQFSLKLSSVTAADTAVYYCARGSSDFSSGYFFDYWGQGTLVTVSS
VL: ETTLTQSPATLSVSPGERAILSCRDSQSVSSNLAWYQQKPGQAPRLLIFGASTRATGIPARFSGSGSGTEFTLTISSLQSEDFAVYYCQQYNNWLSFGQGTKLEIK
B10: human anti-FHbp Fab 5B (Fab, V domains shown)
VH: EVQLLESGGGLVQPGGSLRLSCAASGYTFGSYAMTWVRQGPGKGLEWVSTILGSGADTYYADSVKGRFTISRDNSRNTLFMQLSSLRAEDTAVYYCAKLGYYDTWGQGTLVTVSS
VL: EIVLTQSPATLSLSPGERATLSCRASQSIASYLYWYQQKPGQAPRLLIFDASNRATGTPARFSGSGSGTDFTLTISSLEPEDFAVYYCQQRNNWPRALTFGGGTKVEIK

What is called Kd is the free concentration of one partner at which half of the binding sites on the other are occupied at equilibrium, for simple one-to-one binding. Usually koff stands for the rate constant with which the complex falls apart. For orientation: kon means a measure of how fast the partners come together.

For one test, the target named is recombinant factor H binding protein (FHbp) ID 1 (Neisseria meningitidis) (UniProt Q9JXV4). Kind of test: SPR. On the technique in general: In SPR one partner is held on a chip, and binding of the other changes the refractive index at the surface.
Chain of recombinant factor H binding protein (FHbp) ID 1 (Neisseria meningitidis) (Q9JXV4 20-274): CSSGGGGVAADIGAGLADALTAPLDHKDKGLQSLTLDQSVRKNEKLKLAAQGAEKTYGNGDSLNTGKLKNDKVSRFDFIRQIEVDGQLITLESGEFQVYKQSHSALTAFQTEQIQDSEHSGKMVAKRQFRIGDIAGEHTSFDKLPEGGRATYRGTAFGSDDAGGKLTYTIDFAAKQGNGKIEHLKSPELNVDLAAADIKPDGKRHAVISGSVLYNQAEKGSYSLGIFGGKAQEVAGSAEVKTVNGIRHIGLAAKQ
Regarding B1, the Kd was found to be 22.9 nM.

A further test deals with recombinant factor H binding protein (FHbp) ID 1 (Neisseria meningitidis serogroup B …, UniProt Q9JXV4). Kind of test: SPR.
Chain of recombinant factor H binding protein (FHbp) ID 1 (Q9JXV4 20-274): as above
Turning to B2, the Kd was determined as 130 nM, the koff stood at 0.0032 s⁻¹ and the kon stood at 30000 M⁻¹ s⁻¹.
For B3, the Kd turned out to be 0.019 nM, the koff is 4e-05 s⁻¹ and the kon was determined as 1.85e+06 M⁻¹ s⁻¹.
Take B4: the Kd amounted to 0.82 nM, the koff was found to be 0.0004 s⁻¹ and the kon stood at 500000 M⁻¹ s⁻¹.
As to B5, the Kd worked out at 0.68 nM, the koff was 0.0005 s⁻¹ and the kon came out at 930000 M⁻¹ s⁻¹.
As to B6, the Kd stood at 1.04 nM, the koff was 0.002 s⁻¹ and the kon came out at 2.3e+06 M⁻¹ s⁻¹.
As to B7, the Kd came out at 4.8 nM, the koff was determined as 0.0053 s⁻¹ and the kon was 1.09e+06 M⁻¹ s⁻¹.
As for B8, the Kd turned out to be 0.86 nM, the koff worked out at 0.0006 s⁻¹ and the kon stood at 720000 M⁻¹ s⁻¹.
Regarding B9, the equilibrium dissociation constant (Kd) stood at 115 nM, the koff came to 0.061 s⁻¹ and the kon amounted to 530000 M⁻¹ s⁻¹.
Consider B10, for which the Kd was 10.6 nM, the koff came out at 0.0041 s⁻¹ and the kon was found to be 390000 M⁻¹ s⁻¹.

The values above are taken from paper PMC4479705 (mBio, 2015).
